Data reported in article PMC4596477, “Interaction of Myosin Phosphatase Target Subunit (MYPT1) with Myosin Phosphatase-RhoA Interacting Protein (MRIP): A Role of Glutamic Acids in the Interaction” (PLoS ONE, 2015).

T1: MRIP^724-878 (myosin phosphatase-RhoA interacting protein, residues 724–878; CC2-CC4) (UniProt Q6WCQ1 724-878)
T1 construct: Tight homodimer in solution by AUC; the forward primer puts an NdeI ATG before the codons GAGCGAGGGTTTGCAGCAATG; source: E. coli BL21 (DE3), purified (chitin beads, C8 reversed-phase HPLC)
T1 sequence (looked up): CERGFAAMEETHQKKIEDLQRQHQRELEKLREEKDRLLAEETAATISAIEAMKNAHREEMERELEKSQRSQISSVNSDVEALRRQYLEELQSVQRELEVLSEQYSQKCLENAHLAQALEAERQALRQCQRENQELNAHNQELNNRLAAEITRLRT

T2: MRIP^724-878 (Homo sapiens, UniProt Q6WCQ1)
T2 construct: MRIP^724-878 (residues 724–878; CC2-CC4); made in house; host or cells: Escherichia coli BL21 (DE3)
T2 sequence (Q6WCQ1 725-879): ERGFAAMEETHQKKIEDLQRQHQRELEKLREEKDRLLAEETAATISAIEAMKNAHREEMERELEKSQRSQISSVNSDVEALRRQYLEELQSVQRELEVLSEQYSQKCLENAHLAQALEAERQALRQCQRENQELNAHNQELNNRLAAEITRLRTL


Tests used:
[1] = target: T1, MRIP^724-878 (myosin phosphatase-RhoA …); experiment: SPR; Biacore 3000, 25°C; LR immobilised (244.8 RU) by amine coupling on CM5, analyte MRIP^724-878 (85.6–0.7 μM); reference surface a nebulin-derived peptide; 50 mM potassium phosphate pH 7.4, 100 mM KCl; steady-state affinity fit; settings: both partners purified
[2] = target: T1, MRIP^724-878 (myosin phosphatase-RhoA …); experiment: SPR; Biacore 3000, 25°C; MRIP^724-878 immobilised (1800 RU) by amine coupling on CM5, analytes CCLR (167–1 μM), CC (318–10 μM), LR (569–5 μM); reference surface G-actin; 50 mM potassium phosphate pH 7.4, 100 mM KCl; steady-state affinity fit; settings: both partners purified
MRIP^724-878 = target: T2, MRIP^724-878; experiment: SPR, MYPT1 peptides as analytes over immobilized MRIP^724-878; type: binding; settings: 25°C, pH 7.4, CCLR 167–1 μM, CC 318–10 μM, LR 569–5 μM
Experimental: To corroborate the results from AUC studies, SPR was employed. […] Equilibrium K d values were obtained by nonlinear curve fitting of reference-corrected curves using the steady-state affinity fitting model in BIAevaluation version 4–1.
Analytes CCLR, CC, LR: Interactions between analytes, CCLR (167–1 μM), CC (318–10 μM), and LR (569–5 μM) with immobilized ligand, MRIP^724-878 (1800 RU) after correction for nonspecific binding using G-actin (2230 RU). Shown is a representative out of 9 experiments for CCLR and 8 for LR in each, duplicates or triplicates. Insets show fittings of steady-state affinity. Ligand LR: Interaction of analyte, MRIP^724-878 (85.6–0.7 μM) with immobilized ligand, LR (244.8 RU) after correction for nonspecific binding using a nebulin-derived peptide (600 RU). Shown is a representative out of 6 experiments.
Binding analyses of SPR were conducted on a Biacore 3000 (GE Healthcare) at 25°C. Sensor chips and reagents for immobilization (1-ethyl-3-(3-dimethylaminopropyl) carbodiimide, N-hydroxyl-succinimide, and ethanolamine) were purchased from GE Healthcare. Peptides were immobilized onto a CM5 sensor chip at 232–5841 resonance units (RU) using amine coupling. Binding studies were done using two-fold serial dilutions of the peptides in 50 mM potassium phosphate buffer (pH 7.4) containing 100 mM KCl. […]

[3] = ref [14]; cited from earlier work
Experimental: The concentration ranges of the MRIP peptides in the mixtures overlap with those of the MRIP peptides by themselves (Fig 2). Thus, the greater s* values of the MRIP/MYPT1 mixtures than those of the individual MRIP peptides indicate that MRIP^545-878 monomer, MRIP^724-878 dimer, and the mixture of monomer and dimer of MRIP^724-837 bind to CCLR. […] To obtain the binding stoichiometry, AUC was performed using MRIP^724-878/CCLR mixtures at different ratios of the two peptides. MRIP^724-878 was chosen because the AUC stu ... || To obtain the binding stoichiometry, a series of sedimentation equilibrium experiments was performed. MRIP^724-878 was chosen due to its being a single species. Owing to the absence of aromatic residues, LR was employed. AUC was conducted using MRIP^724-878 alone, LR alone, the 1:1 mixture of MRIP^724-878/LR, and the 1:3 mixture of MRIP^724-878/LR. Sedimentation data were collected both at 280 nm to detect only MRIP^724-878 and at 220 nm to detect both.

Kd [1] [µM] | Kd [2] [µM] | complex formation with immobilized MRIP^724-878 (MRIP^724-878) | Molecule | self-association [3]
40 | 195 |  | ERRISEMEEELKMLPDLKADNQRLKDENGALIRVISKLSK (peptide, UniProt O14974 991-1030, looked up, no result of its own is told for it; also called WT-LR; source: E. coli BL21 (DE3), purified (chitin beads, C8 reversed-phase HPLC)) [LR, leucine repeat region of MYPT1 (residues 991–1030)] | 
 | 14 | formed complexes | CCLR, MYPT1 peptide (residues 924–1030) containing a putative coiled coil domain (CC) and the leucine repeat region (LR) (domain or fragment, UniProt O14974 924-1030, looked up, myosin phosphatase target subunit (MYPT1); also called C-terminal region of MYPT1; source: E. coli BL21 (DE3), purified (chitin beads, C8 reversed-phase HPLC)) LEKDDSTDFKKLYEQILAENEKLKAQLHDTNMELTDLKLQLEKATQRQERFADRSLLEMEKRERRALERRISEMEEELKMLPDLKADNQRLKDENGALIRVISKLSK | reversible self-association
